We go through two molecules from PMC2121072 (The Journal of Cell Biology, 1996).

Values joined by “and” are separate entries in the source; they are usually repeats but may differ in a detail not shown here. Equal entries are not always repeated. Where two headings read alike, the source gives them in different places. Where no end group is shown, it is not given here. The star is where a group is joined. Biotin = O=C1N[C@H]2[C@H](CS[C@H]2CCCCC(=O)*)N1

Series [1] concerns the molecule itself. Nature of the series: SEC.
The target in series [2] is T1, GST-PDZ1+2+3 fusion protein of hDlg (human, UniProt Q12959 201-584). Nature of the series: SPR.
T1 sequence (Q12959 201-584): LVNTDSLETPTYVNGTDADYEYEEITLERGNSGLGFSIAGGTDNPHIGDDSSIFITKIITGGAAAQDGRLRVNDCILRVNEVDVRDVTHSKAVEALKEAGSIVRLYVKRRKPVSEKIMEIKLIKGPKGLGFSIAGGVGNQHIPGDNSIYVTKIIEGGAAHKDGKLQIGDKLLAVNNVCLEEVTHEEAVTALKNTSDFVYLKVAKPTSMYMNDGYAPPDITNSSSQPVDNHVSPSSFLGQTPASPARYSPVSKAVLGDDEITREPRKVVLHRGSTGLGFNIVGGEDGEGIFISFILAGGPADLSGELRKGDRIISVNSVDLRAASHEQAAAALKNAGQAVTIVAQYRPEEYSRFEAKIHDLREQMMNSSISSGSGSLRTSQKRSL
The target of series [3] is PDZ1+2 (A) module of hDlg (human, UniProt Q12959 205-411). Kind of series: SPR.
Sequence of PDZ1+2 (A) module of hDlg (Q12959 205-411): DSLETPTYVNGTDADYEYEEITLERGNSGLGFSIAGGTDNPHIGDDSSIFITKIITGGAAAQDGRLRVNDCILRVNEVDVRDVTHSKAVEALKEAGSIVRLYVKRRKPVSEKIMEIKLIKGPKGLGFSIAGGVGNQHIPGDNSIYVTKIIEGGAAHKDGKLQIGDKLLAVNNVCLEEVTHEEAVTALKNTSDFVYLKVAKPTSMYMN
Series [4] has as its target T1, GST-PDZ1+2+3 fusion protein of hDlg. Nature of the series: SPR. This is another data set of the same source.

B1: PDZ3 (A) domain of hDlg (domain or fragment, human, UniProt Q12959 457-558, looked up)
chain: DDEITREPRKVVLHRGSTGLGFNIVGGEDGEGIFISFILAGGPADLSGELRKGDRIISVNSVDLRAASHEQAAAALKNAGQAVTIVAQYRPEEYSRFEAKIH
On to B1, for which the “stoichiometry N” value in series [1] is 2.

Biotin-SGSGDKNNCSNAKAVETDV [biotinylated synthetic peptide of the COOH terminus of the Kv1.4 potassium channel]: in series [2], binding was put at a Kd of 11 nM, the koff was 0.002 s⁻¹ and the kon is 180000 M⁻¹ s⁻¹. Besides, in series [3], binding was characterised by a dissociation constant (Kd) of 33 ± 5 nM; the koff is 0.0149 s⁻¹ and 0.0135 s⁻¹; the kon was determined as 413000 M⁻¹ s⁻¹. In addition, in series [4], the Kd is 160 nM, the koff was found to be 0.024 s⁻¹ and the kon is 150000 M⁻¹ s⁻¹.
